Assay results taken from publication PMC4987623, “The tetrameric MotA complex as the core of the flagellar motor stator from hyperthermophilic bacterium” (Scientific Reports, 2016).

How the values were obtained:
[1] = molecular target: the molecule itself; assay: cross-linking; about 0.5 mg/mL purified His-MotA in PN buffer (50 mM NaPO4 pH 7.0, 150 mM NaCl) with 0.1% (w/v) DM, 20 °C, 20 mM EDC for 0-120 min; SDS-PAGE, CBB staining and immunoblot
[2] = molecular target: the molecule itself; assay: negative-stain electron microscopy, single particle 3D reconstruction; MotA complex from the 210 kDa gel filtration fraction, stained with 2% uranyl acetate; 2-fold rotational symmetry applied; 25 Å resolution
[3] = molecular target: the molecule itself; assay: cross-linking; about 0.5 mg/mL purified His-MotA in PN buffer (50 mM NaPO4 pH 7.0, 150 mM NaCl) with 0.1% (w/v) DM, 20 °C, 0-5 mM BS3 for 5 min; SDS-PAGE, CBB staining and immunoblot

B1: MotA from Aquifex aeolicus with N-terminal histidine tag (His-MotA^Aa) (natural protein, UniProt O67122 1-254, looked up)
chain: MDVGTIIGIIAAFLLILISILIGGSITAFINVPSIFIVVGGGMAAAMGAFPLKDFIRGVLAIKKAFLWKPPDLNDVIETIGEIASKVRKEGILALEGDIELYYQKDPLLGDMIRMLVDGIDINDIKATAEMALAQLDEKMSTEVAVWEKLADLFPAFGMIGTLIGLIQMLRNLNDPSALGPGMAVALITTLYGAILANAFAIPVANKLKKAKDMEVLVKTIYIEAIEKIQKGENPNVVKQEAAIMLGVELPEEV
notes: MotA, flagellar motor stator protein of Aquifex aeolicus; full-length motA gene cloned into pColdI; four transmembrane helices, cytoplasmic residues 54-149 and 205-254; Expressed from pColdI-motA^Aa without MotB; 28 kDa with the tag; source: E. coli BL21-CodonPlus(DE3)-RIPL, membrane fraction solubilized in detergent, purified (Ni-NTA agarose, gel filtration); not shown: His6, N-terminal, kept
[1]
  stoichiometry N: ≥ 4
[2]
  stoichiometry N: 4
[3]
  stoichiometry N: 2
